Reference: patent publication US20070196860

B1: Akt3 (protein)
chain: SDVTIVKEGWVQKRGEYIKNWRPRYFLLKTDGSFIGYKEKPQDVDLPYPLNNFSVAKCQLMKTERPKPNTFIIRCLQWTTVIERTFHVDTPEEREEWTEAIQAVADRLQRQEEERMNCSPTSQIDNIGEEEMDASTTHHKRKTMNDFDYLKLLGKGTFGKVILVREKASGKYYAMKILKKEVIIAKDEVAHTLTESRVLKNTRHPFLTSLKYSFQTKDRLCFVMEYVNGGELFFHLSRERVFSEDRTRFYGAEIVSALDYLHSGKIVYRDLKLENLMLDKDGHIKITDFGLCKEGITDAATMKTFCGTPEYLAPEVLEDNDYGRAVDWWGLGVVMYEMMCGRLPFYNQDHEKLFELILMEDIKFPRTLSSDAKSLLSGLLIKDPNKRLGGGPDDAKEIMRHSFFSGVNWQDVYDKKLVPPFKPQVTSETDTRYFDEEFTAQTITITPPEKYDDDGMDGMDNERRPHFPQFSYSASGRE
B2: Akt1 (protein)
chain: MNDVAIVKEGWLHKRGEYIKTWRPRYFLLKNDGTFIGYKERPQDVDQRESPLNNFSVAQCQLMKTERPRPNTFIIRCLQWTTVIERTFHVETPEEREEWATAIQTVADGLKRQEEETMDFRSGSPSDNSGAEEMEVSLAKPKHRVTMNEFEYLKLLGKGTFGKVILVKEKATGRYYAMKILKKEVIVAKDEVAHTLTENRVLQNSRHPFLTALKYSFQTHDRLCFVMEYANGGELFFHLSRERVFSEDRARFYGAEIVSALDYLHSEKNVVYRDLKLENLMLDKDGHIKITDFGLCKEGIKDGATMKTFCGTPEYLAPEVLEDNDYGRAVDWWGLGVVMYEMMCGRLPFYNQDHEKLFELILMEEIRFPRTLGPEAKSLLSGLLKKDPTQRLGGGSEDAKEIMQHRFFANIVWQDVYEKKLSPPFKPQVTSETDTRYFDEEFTAQMITITPPDQDDSMECVDSERRPHFPQFSYSASGTA

Molecular target: SEQ ID NO. 25, Ac-…dPSxG-NH2

| Protein | reaction rate, PDGF-treated NIH3T3 lysate | reaction rate, control treated NIH3T3 lysate |
| --- | --- | --- |
| B1 | The PDGF-treated sample showed a reaction rate of 1.24 RFU/sec | the control treated sample had a markedly reduced rate of 0.28 RFU/sec |
| B2 | The PDGF-treated sample showed a reaction rate of 1.13 RFU/sec | the control treated sample had a markedly reduced rate of 0.12 RFU/sec |
